The values below come from patent US12416018B2, “Regulation of gene expression by aptamer-mediated modulation of alternative splicing” (MEIRAGTX GENE REGULATION LIMITED, priority 2015, dated 2025).

The series deals with firefly luciferase gene expression in HEK 293 cells. The series is described as follows: Firefly luciferase assay of HEK 293 cells transfected with splicing / Intron-Exon-Intron constructs (no ligand). It is filed as cell-based. The protocol: Transfection: 3.5×10^4 HEK 293 cells were plated in 96-well flat bottom plate the day before transfection. Plasmid DNA (500 ng) was added to a tube or a 96-well U-bottom plate. Separately, TransIT-293 reagent (Mirus; 1.4 uL) was added to 50 μL Opti-mem I media (Life Technologies), and allowed to sit for 5 minutes at room temperature (RT). Then, 50 μL of this diluted transfection reagent was added to the DNA, mixed, and incubated at room temperature (“RT”) for 20 min. Finally, 7 μL of this solution was added to a well of cells in the 96-well plate.
Firefly luciferase assay of cultured cells: 24 hours after media change, plates were removed from the incubator, and equilibrated to RT for several minutes on a lab bench, then aspirated. Glo-lysis buffer (Promega, 100 μL, RT) was added, and the plates allowed to remain at RT for at least 5 minutes. Then, the well contents were mixed by 50 μL trituration, and 20 μL of each sample was mixed with 20 μL of bright-glo reagent (Promega) that had been diluted to 10% in glo-lysis buffer. 96 wells were spaced on an opaque white 384-well plate. Following a 5 min incubation at RT, luminescence was measured using Tecan machine with 500 mSec read time. The luciferase activity was expressed as mean relative light unit (RLU)±S.D.
The constructs were verified by DNA sequencing (Genewiz). DNA was transfected in HEK 293 cells and assayed for luciferase activity as described in Example 1.
Sequences containing the DHFR exon 2 with native 3′ and 5′ ss sequences, in which the 5′ss was embedded in a hairpin structure were synthesized (IDT), and cloned into the indicated vector using Golden Gate cloning strategy (NEB). Constructs were transfected into HEK 293 cells and assayed for luciferase activity as described in Example 1.

“Also recorded” adds a separate entry of the source. Read-outs that look alike come from different tables or passages of the source.

B1: DHFR_wtmtSRp40_HP15: DHFR_wtmtSRp40 with 5′ss in hairpin; SEQ ID NO: 56 (nucleic acid)
DNA: GAGTAACGCTGTTTCTCTAACTTGTAGGAATGAATTCAGATATTTCCAGAGAATGAAAAAAAAATCTTCAGTAGAAGGTAATGTGGCGAAAGCCACATTACCTTCT
modifications: expressed or natural sequence
With B1, the “luciferase expression relative to control constructs (in words)” value is “restored luciferase expression”.

B2: DHFR_wt: Con 1 with wild type human DHFR exon 2, native 5′ss; SEQ ID NO: 47 (nucleic acid)
DNA: GAGTAACGCTGTTTCTCTAACTTGTAGGAATGAATTCAGATATTTCCAGAGAATGACCACAACCTCTTCAGTAGAAGGTAATGTG
modifications: expressed or natural sequence
As for B2, the “fold lower luciferase expression compared with Con 1” value (shortened to “fold lower luciferase expression”) came to 116 fold.

B3: DHFR_wt5ssC: DHFR exon 2 with native 5′ss four nucleotides mutated to C; SEQ ID NO: 48 (nucleic acid)
DNA: GAGTAACGCTGTTTCTCTAACTTGTAGGAATGAATTCAGATATTTCCAGAGAATGACCACAACCTCTTCAGTAGAAGCCCCTGTG
modifications: expressed or natural sequence
As for B3, the “luciferase expression relative to control constructs (in words)” value is “restored to the level of Con 1”.

B4: DHFR_wtSC35hnRNPA1: DHFR exon 2, SC35 site replaced by hnRNP A1 binding site; SEQ ID NO: 53 (nucleic acid)
DNA: GAGTAACGCTGTTTCTCTAACTTGTAGGAATGTAGGGAGATATTTCCAGAGAATGACCACAACCTCTTCAGTAGAAGGTAATGTG
modifications: expressed or natural sequence
Take B4: the “fold increase in luciferase expression compared to the wild type DHFR exon 2” value amounted to 4.3 fold and the “luciferase expression relative to control constructs (in words)” value was “increased luciferase expression”.

B5: DHFR_Con15ss: DHFR exon 2 with 5′ss from Con 1; SEQ ID NO: 49 (nucleic acid)
DNA: GAGTAACGCTGTTTCTCTAACTTGTAGGAATGAATTCAGATATTTCCAGAGAATGACCACAACCTCTTCAGTAGAGGGTGAGTTG
modifications: expressed or natural sequence
Take B5: the “fold lower luciferase expression” value was determined as 545 fold and the “luciferase expression relative to control constructs (in words)” value is on record as “abolishes luciferase expression compared to Con 1; also recorded: efficiently suppresses luciferase expression”.

B6: DHFR_wtStrSC35: DHFR exon 2 with stronger SC35 binding site; SEQ ID NO: 52 (nucleic acid)
DNA: GAGTAACGCTGTTTCTCTAACTTGTAGGAATGGCCCCTGATATTTCCAGAGAATGACCACAACCTCTTCAGTAGAAGGTAATGTG
modifications: expressed or natural sequence
Regarding B6, the “fold lower luciferase expression” value came out at 139 fold.

B7: DHFR_wtmtSRp40: DHFR exon 2 with mutated SRp40 binding site; SEQ ID NO: 51 / 58 (nucleic acid)
DNA 1: GAGTAACGCTGTTTCTCTAACTTGTAGGAATGAATTCAGATATTTCCAGAGAATGAAAAAAAAATCTTCAGTAGAAGGTAATGTG
DNA 2: GAGTAACGCTGTTTCTCTAACTTGTAGGAATGAATTCAGATATTTCCAGAGAATGAAAAAAAAATCTTCAGTAGAAGGTAATGT
modifications: expressed or natural sequence
With B7, the “fold lower luciferase expression” value is 2,982 fold and the “luciferase expression relative to control constructs (in words)” value is “does not express luciferase”. For the same molecule, the “fold lower luciferase expression” value (listed as DHFR_mtSRp40) was determined as 2982 fold.

B8: DHFR_Con45ss: DHFR exon 2 with weak 5′ss from Con 4; SEQ ID NO: 50 (nucleic acid)
DNA: GAGTAACGCTGTTTCTCTAACTTGTAGGAATGAATTCAGATATTTCCAGAGAATGACCACAACCTCTTCAGTAGGAGGTGTGGTG
modifications: expressed or natural sequence
B8: the “luciferase expression relative to control constructs (in words)” value is “luciferase expression is increased”.

B9: DHFR_Con15ss_HP15: DHFR_Con15ss with 15 bp hairpin embedding the 5′ss; SEQ ID NO: 54 (nucleic acid)
DNA: GAGTAACGCTGTTTCTCTAACTTGTAGGAATGAATTCAGATATTTCCAGAGAATGACCACAACCTCTTCAGTAGAGGGTGAGTTGGCGAAAGCCAACTCACCCTCT
modifications: expressed or natural sequence
For B9, the “luciferase expression relative to control constructs (in words)” value is “allows luciferase expression”. In addition, the “luciferase expression relative to control constructs (in words)” value (listed as DHFR_Con 15ss_HP15) is reported as “completely restores luciferase expression to the level of Con 1”.

B10: DHFR_Con15ss_HP15x: 15 bp hairpin with broken stem; SEQ ID NO: 55 (nucleic acid)
DNA: GAGTAACGCTGTTTCTCTAACTTGTAGGAATGAATTCAGATATTTCCAGAGAATGACCACAACCTCTTCAGTAGAGGGTGAGTTGGCGAAAAACAGCATAAAGTAT
modifications: expressed or natural sequence
Turning to B10, the “luciferase expression relative to control constructs (in words)” value is given as “not able to restore luciferase expression; also recorded: does not restore luciferase expression”.

B11: Con 1: luciferase gene with truncated human beta-globin intron 2 (IVS2Δ), original IVS2 splice sites; SEQ ID NO: 1 (nucleic acid)
DNA: GAGGTTCCATCTGCCAGGTATCAGGGTGAGTCTATGGGACCCTTGATGTTTTCTTTCCCCTTCTTTTCTATGGTTAAGTTCATGTCATAGGAAGGGGAGAAGTAACAGGGTACACATATTGACCAAATCAGGGTAATTTTGCATTTGTAATTTTAAAAAATGCTTTCTTCTTTTAATATACTTTTTTGTTTATCTTATTTCTAATACTTTCCCTAATCTCTTTCTTTCAGGGCAATAATGATACAATGTATCATGCCTCTTTGCACCATTCTAAAGAATAACAGTGATAATTTCTGGGTTAAGGCAATAGCAATATTTCTGCATATAAATATTTCTGCATATAAATTGTAACTGATGTAAGAGGTTTCATATTGCTAATAGCAGCTACAATCCAGCTACCATTCTGCTTTTATTTTATGGTTGGGATAAGGCTGGATTATTCTGAGTCCAAGCTAGGCCCTTTTGCTAATCATGTTCATACCTCTTATCTTCCTCCCACAGCAAGGATATGGGCTCACTGAGACTACATCAGCTATTCT
modifications: Luci-IVS-Luci in construct Con1 Human beta- globin intron 2 containing a deletion (IVS2) is in lowercase and flanking luciferase sequence is in uppercase.
B11: the “luciferase expression relative to control constructs (in words)” value is recorded as “did not affect gene expression”.

B12: Con 3: luciferase with IVS2Δ, altered 5′ss; SEQ ID NO: 3 (nucleic acid)
DNA: TTCTTCGCCAAAAGCAGTAAGTCTATGGGACCCTTGATGTTTTCTTTCCCCTTCTTTTCTATGGTTAAGTTCATGTCATAGGAAGGGGAGAAGTAACAGGGTACACATATTGACCAAATCAGGGTAATTTTGCATTTGTAATTTTAAAAAATGCTTTCTTCTTTTAATATACTTTTTTGTTTATCTTATTTCTAATACTTTCCCTAATCTCTTTCTTTCAGGGCAATAATGATACAATGTATCATGCCTCTTTGCACCATTCTAAAGAATAACAGTGATAATTTCTGGGTTAAGGCAATAGCAATATTTCTGCATATAAATATTTCTGCATATAAATTGTAACTGATGTAAGAGGTTTCATATTGCTAATAGCAGCTACAATCCAGCTACCATTCTGCTTTTATTTTATGGTTGGGATAAGGCTGGATTATTCTGAGTCCAAGCTAGGCCCTTTTGCTAATCATGTTCATACCTCTTATCTTCCTCCCACAGCTCTGATTGACAAATACG
modifications: Luci-IVS-Luci in construct Con3
Regarding B12, the “luciferase expression relative to control constructs (in words)” value is “expression levels similar to Con 1 and Con 8”.

B13: Con 2: luciferase with IVS2Δ, altered 5′ss; SEQ ID NO: 2 (nucleic acid)
DNA: GATTACACCCGAGGGGGATGATAAAGTAAGCCTATGGGACCCTTGATGTTTTCTTTCCCCTTCTTTTCTATGGTTAAGTTCATGTCATAGGAAGGGGAGAAGTAACAGGGTACACATATTGACCAAATCAGGGTAATTTTGCATTTGTAATTTTAAAAAATGCTTTCTTCTTTTAATATACTTTTTTGTTTATCTTATTTCTAATACTTTCCCTAATCTCTTTCTTTCAGGGCAATAATGATACAATGTATCATGCCTCTTTGCACCATTCTAAAGAATAACAGTGATAATTTCTGGGTTAAGGCAATAGCAATATTTCTGCATATAAATATTTCTGCATATAAATTGTAACTGATGTAAGAGGTTTCATATTGCTAATAGCAGCTACAATCCAGCTACCATTCTGCTTTTATTTTATGGTTGGGATAAGGCTGGATTATTCTGAGTCCAAGCTAGGCCCTTTTGCTAATCATGTTCATACCTCTTATCTTCCTCCCACAGCCGGGCGCGGTCGGTAAAGT
modifications: Luci-IVS-Luci in construct Con2
For B13, the “luciferase expression relative to control constructs (in words)” value was “expression levels similar to Con 1 and Con 8”.

B14: Con 4: luciferase with IVS2Δ, weak 5′ss; SEQ ID NO: 4 (nucleic acid)
DNA: AAGAGCTGTTTCTGAGGAGGTGTGGCTATGGGACCCTTGATGTTTTCTTTCCCCTTCTTTTCTATGGTTAAGTTCATGTCATAGGAAGGGGAGAAGTAACAGGGTACACATATTGACCAAATCAGGGTAATTTTGCATTTGTAATTTTAAAAAATGCTTTCTTCTTTTAATATACTTTTTTGTTTATCTTATTTCTAATACTTTCCCTAATCTCTTTCTTTCAGGGCAATAATGATACAATGTATCATGCCTCTTTGCACCATTCTAAAGAATAACAGTGATAATTTCTGGGTTAAGGCAATAGCAATATTTCTGCATATAAATATTTCTGCATATAAATTGTAACTGATGTAAGAGGTTTCATATTGCTAATAGCAGCTACAATCCAGCTACCATTCTGCTTTTATTTTATGGTTGGGATAAGGCTGGATTATTCTGAGTCCAAGCTAGGCCCTTTTGCTAATCATGTTCATACCTCTTATCTTCCTCCCACAGCCTTCAGGATTACAAGATTCAA
modifications: Luci-IVS-Luci in construct Con4
Take B14: the “luciferase expression relative to control constructs (in words)” value was “significantly reduce luciferase expression”.
